From patent EP4725501A1 come the findings set out here.

Like-named read-outs stand apart in the source and are kept apart here.

For assay [1], the target named is MASP3 in Factor D depleted human plasma (human) (UniProt P48740). Put plainly: cell-based or functional assay.
The target in assay [2] is human MASP3-His (human) (UniProt P48740). Put plainly: cell-based or functional assay.
The target in assay [3] is MASP3 in Factor D depleted human plasma (human) (UniProt P48740). Put plainly: cell-based or functional assay. The source holds these as a separate data set.
Assay [4] deals with human MASP3-His (human) (UniProt P48740). Put plainly: ELISA; antigen coated 0.1 ug/well, antibody titrated, goat anti-human IgG-HRP. A general note: ELISA stands for enzyme-linked immunosorbent assay.
In assay [5] the target is monkey MASP3-His (monkey). The description is as above.
For the next assay, the target named is mouse MASP3-His (mouse) (UniProt P98064). The assay is described as above.
Chain of mouse MASP3-His (mouse) (P98064 other isoform, or with tags, fused parts or gaps): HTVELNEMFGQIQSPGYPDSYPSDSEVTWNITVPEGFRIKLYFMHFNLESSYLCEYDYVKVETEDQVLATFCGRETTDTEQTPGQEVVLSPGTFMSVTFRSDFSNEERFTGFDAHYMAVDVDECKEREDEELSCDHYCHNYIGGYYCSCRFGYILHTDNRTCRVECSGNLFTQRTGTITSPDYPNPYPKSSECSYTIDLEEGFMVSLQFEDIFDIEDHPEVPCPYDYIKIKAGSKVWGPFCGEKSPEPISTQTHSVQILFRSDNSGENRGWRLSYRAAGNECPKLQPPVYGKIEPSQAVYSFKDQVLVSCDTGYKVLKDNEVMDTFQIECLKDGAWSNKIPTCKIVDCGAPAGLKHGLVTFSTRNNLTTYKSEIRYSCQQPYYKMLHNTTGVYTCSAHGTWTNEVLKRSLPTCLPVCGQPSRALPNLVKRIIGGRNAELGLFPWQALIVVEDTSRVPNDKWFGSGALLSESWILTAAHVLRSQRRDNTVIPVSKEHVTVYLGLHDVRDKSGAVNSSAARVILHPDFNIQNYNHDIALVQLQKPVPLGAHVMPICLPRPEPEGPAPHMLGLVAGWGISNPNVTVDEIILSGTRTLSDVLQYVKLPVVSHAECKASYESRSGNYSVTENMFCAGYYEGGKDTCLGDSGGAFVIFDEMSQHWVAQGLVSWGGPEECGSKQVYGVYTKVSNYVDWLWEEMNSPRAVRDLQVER

Chain of human MASP3-His (human) (P48740 other isoform, or with tags, fused parts or gaps): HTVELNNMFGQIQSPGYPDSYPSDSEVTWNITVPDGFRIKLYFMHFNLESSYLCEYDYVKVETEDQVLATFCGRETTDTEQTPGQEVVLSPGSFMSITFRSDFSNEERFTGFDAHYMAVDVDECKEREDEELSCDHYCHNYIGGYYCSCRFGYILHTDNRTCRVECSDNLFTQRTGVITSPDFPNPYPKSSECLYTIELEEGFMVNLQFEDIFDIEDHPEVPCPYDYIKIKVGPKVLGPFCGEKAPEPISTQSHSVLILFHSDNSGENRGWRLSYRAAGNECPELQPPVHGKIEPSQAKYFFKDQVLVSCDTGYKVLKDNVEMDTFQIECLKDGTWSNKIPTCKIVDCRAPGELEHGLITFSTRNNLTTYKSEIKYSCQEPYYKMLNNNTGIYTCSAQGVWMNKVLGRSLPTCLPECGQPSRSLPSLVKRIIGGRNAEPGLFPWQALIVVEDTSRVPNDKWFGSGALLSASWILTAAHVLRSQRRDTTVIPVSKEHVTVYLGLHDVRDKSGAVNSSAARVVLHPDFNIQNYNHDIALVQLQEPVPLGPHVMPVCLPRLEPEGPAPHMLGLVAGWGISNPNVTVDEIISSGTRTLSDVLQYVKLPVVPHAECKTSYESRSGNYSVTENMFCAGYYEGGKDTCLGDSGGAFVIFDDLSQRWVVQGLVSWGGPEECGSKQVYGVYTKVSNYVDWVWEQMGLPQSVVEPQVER
Chain of MASP3 in Factor D depleted human plasma (human) (P48740 other isoform, or with tags, fused parts or gaps): as above

For OMS906 (antibody), the Inhibit hemolysis IC50 was 17.1 nM in assay [1] and 13 nM in assay [3]. Also, the IC50 (nM), inhibition of MASP3 enzyme activity (cleavage of fluorescent tripeptide Boc-Val-Pro-Arg-AMC) with human MASP3-His (human) [2] is 200 nM. In addition, the EC50 stood at 0.98 nM with human MASP3-His (human) [4], 2.97 nM in assay [5] and 5.33 nM in the assay with mouse MASP3-His (mouse).

One may read the EC50 as the concentration giving half of the maximal effect.
